Results as given in the RNAGym collection of RNA variant scans (doi:10.1101/gr.219683.116).

B1: mRNA-splicing (parent)
chain: AGUUGCUGCUGGGAGCUCCAGCACAGUGAAAUGGACAGAAGGGCAGAGCAA

Variants of: B1
Assay: exon inclusion enrichment index; higher = more inclusion; WT1 exon 5 minigene, HEK293

Row | Variant | exon inclusion enrichment index
1 | U10G G11A | 2.34
2 | G5A C6G U7G C9G U10C | 0.00245
3 | G5C C6G U7C U10C G38A A39C | 2.65
4 | G5A C6U U7A G8U C9A U27G G28A | 0.12
5 | G5A C6U U7A G8U C9A U27G G28U | 0.00125
6 | C6U G8U C9U | 0.0925
7 | G5C C6U G8C C9U U10C C19U A20G | 0.343
8 | G5A C6U U7A G8U | 0.171
9 | G5A C6U U7A G8U C9A G26U | 0.0898
10 | G5A C6U U7A G8U C9A G26A | 0.141
11 | G5C C6A U7C G8A U10A C24U A25C | 0.98
12 | G5C C6A U7C G8A U10A C24U A25G | 0.334
13 | G5A U7C G8A U10C U17A C18U | 1.52
14 | G2C U3G G5U G8U C9U | 0.38
15 | C6A U7A C9A U10A G42U G43A | 1.42
16 | G5C C6G U7C U10C C16U U17C | 2.87
17 | A47G G48U | 0.00564
18 | G5A C6G U7G C9A G12C G13A | 0.00586
19 | U3G G5C C6G U7C U10C | 1.32
20 | G5A C6G U7C C9A U10C | 0.602
21 | G5A C6G U7G C9A A45U | 0.00141

Row | Variant | exon inclusion enrichment index
22 | G2C U3C G5A C6U U7A G8U C9A | 0.0956
23 | G5C C6G U7C U10C G12A G13C | 1.55
24 | G5A C6U U7A G8U C9A A14U G15U | 0.00593
25 | G5A C6U U7A C9A | 0.0715
26 | G5U G8U C9U G21C C22U | 0.151
27 | G5U G8U U10G | 1.8
28 | G5A C6U U7A G8U C9A A14U | 0.00769
29 | G5A C6G U7G C9A A23C | 0.00491
30 | G5A C6G U7G C9A A23G | 0.00235
31 | G5A C6G U7G C9A A47G | 0.00123
32 | G5C C6A U7C G8A U10A A45U G46C | 0.0541
33 | G2A G5C C6A U7C G8A U10A | 0.316
34 | G5A U7C G8A U10C A29C A30U | 1.35
35 | G5U G8U C9U G21A C22U | 0.0464
36 | G5C C6U G8C C9U U10C G38C A39U | 0.141
37 | C6A U7C C9A U10C G46A A47C | 3.66
38 | G5A U7C G8A U10C C44G A45G | 0.315
39 | C6G U7A G8U C9A | 0.349
40 | C6A U7C C9A U10C G15A | 3.34
41 | G5A C6U U7A G8U C9A C44A A45G | 0.0995
42 | G5A C6U U7A G8U C9A A39C A40C | 0.204

Row | Variant | exon inclusion enrichment index
43 | C6A U7C C9A U10C G43C C44G | 4.77
44 | G5C U7A G8C C9U U10C | 0.259
45 | G5C C6G U7C U10C G26C U27A | 3.33
46 | G5C C6A U7C G8A U10A A20C G21C | 0.00894
47 | G5A C6G U7G C9A G33A G34U | 0.000917
48 | G5C C6U U7C G8A C9U U10C | 1.99
49 | G5C C6A U7C G8A U10A G42C G43A | 0.455
50 | U3A U4G G5U G8U C9U | 0.143
51 | U3C U4C | 0.208
52 | U3G U4C | 0.16
53 | G5C C6A U7C G8A U10A G34A A35C | 0.0814
54 | G5C C6U G8C C9U U10C G33A G34C | 0.284
55 | C6A U7C C9A U10C A14G G15A | 3.53
56 | G5A C6G U7G C9A C16G U17G | 0.0104
57 | G5A C6G U7G C9A G42C G43C | 0.0141
58 | C6A U7C C9A U10C C19G | 3.61
59 | G5U G8U C9U A14U G15U | 0.00524
60 | G5A C6G U7G C9A A35C C36G | 0.00118
61 | A37C | 0.637
62 | G5U C6U U7A G8U C9A | 0.0673
63 | G5C C6U G8C C9U U10C G21A C22A | 0.718

Row | Variant | exon inclusion enrichment index
64 | G5A C6U U7A G8U C9A G13C A14U | 0.0623
65 | G5A C6U U7A G8U C9A C18U C19G | 0.0036
66 | G5A C6U U7A G8U C9A G26A U27C | 0.504
67 | G5U G8U C9U G43C C44U | 0.0876
68 | C6A U7A C9A U10A G12A G13A | 1.6
69 | G5A C6U U7A G8U C9A G41C G42A | 0.139
70 | U27A G28A | 0.181
71 | G5U G8U C9U A30G | 0.109
72 | C6A U7A C9A U10A C44A A45C | 1.9
73 | G5A C6U U7A G8U C9A C22A A23C | 0.189
74 | G5U G8U C9U C36A A37U | 0.0263
75 | A20G G21C | 2.64
76 | G2C U3C G5U G8U C9U | 0.29
77 | C6A | 0.079
78 | C19U | 0.199
79 | G5C C6A U7C G8A U10A C18G | 0.097
80 | G5U G8U C9A U10A | 0.0322
81 | C6A U7C C9A U10C A20U G21U | 2.83
82 | G5U G8U C9U C24A A25U | 0.149
83 | G5C C6U G8C C9U U10C C24G A25U | 2.32
84 | G5C C6U G8C C9U U10C C24G A25C | 3.27
